From patent US20250295799A1, “ANTIBODY-DRUG CONJUGATES TARGETING GLYPICAN-3 AND METHODS OF USE” (Zymeworks BC Inc., priority 2022, published 2025)

Target: Insulin (Sigma-Aldrich, 19278) (Homo sapiens (Human)) (UniProt P01308)
Experiment: NS-ELISA, plate coated with insulin, antibody at 100 nM

Insulin (Sigma-Aldrich, 19278) (Homo sapiens (Human)), sequence (P01308 25-54 limits assumed, chain 1 of 2): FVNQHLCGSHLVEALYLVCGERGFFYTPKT
Insulin (Sigma-Aldrich, 19278) (Homo sapiens (Human)), sequence (P01308 90-110 limits assumed, chain 2 of 2): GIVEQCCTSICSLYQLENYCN

B1: v37575 (codrituzumab) (antibody, human IgG1, kappa, V domains shown)
VH: QVQLVQSGAEVKKPGASVKVSCKASGYTFTDYEMHWVRQAPGQGLEWMGALDPKTGDTAYSQKFKGRVTLTADKSTSTAYMELSSLTSEDTAVYYCTRFYSYTYWGQGTLVTVSS
VL: DVVMTQSPLSLPVTPGEPASISCRSSQSLVHSNRNTYLHWYLQKPGQSPQLLIYKVSNRFSGVPDRFSGSGSGTDFTLKISRVEAEDVGVYYCSQNTHVPPTFGQGTKLEIKR
NS-ELISA binding score (ratio to buffer well): 0.83

B2: v36180 (M3-H1L1) (antibody, human IgG1, kappa, V domains shown)
VH: EVQLVQSGAEVKKPGSSVKVSCKASGYTFTDYEMHWVRQAPGQGLEWIGAIDPETGDTAYNQKFKGRATLTADKSTSTAYMELSSLRSEDTAVYYCTRYFSFAYWGQGTLVTVSS
VL: DVQMTQSPSSVSASVGDRVTITCRSSQSLRHSNGNTYLQWYQQKPGKAPKLLIYKVSNRFSGVPSRFSGSGSGTDFTLTISSLQPEDFATYFCYQSKHVPYTFGQGTKVEIKR
NS-ELISA binding score (ratio to buffer well): 1.78
